Source: the supplement of paper PMC12764529
± gives the half width of the 95% confidence interval.

Key:
[1] = folding stability dG unfold from chymotrypsin proteolysis; higher = more stable
Summary of the method: (§1)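 Designed mini-proteins with no cysteine and under 80 residues were kept only if AlphaFold2 dimer inter-PAE was above 15. In a PA-tagged cDNA display construct, they were digested with trypsin and chymotrypsin and then sequenced. K50 was inferred by Bayesian fitting of counts, and unfolding free energy was derived per protease or combined against a sequence-predicted unfolded-state K50 and a shared folded-state K50.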

[2] = folding stability dG unfold from trypsin proteolysis; higher = more stable
Summary of the method: as §1

[3] = folding stability dG unfold (combined trypsin and chymotrypsin); higher = more stable
Summary of the method: as §1

Sequence | folding stability dG unfold [1] [kcal/mol] | folding stability dG unfold [2] [kcal/mol] | folding stability dG unfold [3] [kcal/mol]
SMTPEEEAKRKAEEEAEKLKEEIKKKLKEEGVPKNVTFKFERDIEITLTDENGNVIGTRKIKIKFTVPLPSA [r9_494_JUSTAS] | 1.79 ± 0.13 | 2.14 ± 0.29 | 1.85 ± 0.39
SAGGSAGGSAYTINIWVPPGMPKEEAADYIADWLHERHGIPDIKVSVEQDPDGMTKVTITVKSAGGSAGGSA [r18_1_TrROS] | 2.77 ± 0.033 | 2.32 ± 0.14 | 2.52 ± 0.085
SAGGKEVKITIEYDEETKEVRVTIEKDGKEITVTMTAEELKKLLEELEKLPPVVVKDKDGKEKVVLLSAGGS [r8_332_TrROS_Hall] | -0.472 ± 0.26 | 1.14 ± 0.037 | 0.696 ± 0.13
SMIQVDIKPDAINVTVTKEGKSVTVPMDLEELEELLKKGVEKVEIKSPDPEVLEKIKELVEKAGVPIELKSA [r9_810_JUSTAS] | 0.686 ± 0.06 | 1.09 ± 0.1 | 1.02 ± 0.25
SAGGSAGGSAMIEDPATGRVYELDPSVPTVTVYEKTEGEGGEVVEKGVVEADPANPEKALLESAGGSAGGSA [r18_448_JUSTAS] | 0.826 ± 0.073 | 0.45 ± 0.048 | 0.716 ± 0.069
SAKKKVVELEIEIEVPPEDLTEEELKEKVLEALRKLFPDLKIKKIEIEVRVERKEDGSLKVTVKIKIEPSAG [r14_145_TrROS_Hall] | 2.01 ± 0.14 | 3.03 ± 0.13 | 2.65 ± 0.28
SAGGSAGGSNYVVRIKIRYPDPDGKPIYEHTIDIPVPDEEITADELRKQLKPPGYEITDIEVLSAGGSAGGS [r12_611_TrROS] | 0.314 ± 0.16 | 0.509 ± 0.028 | 0.57 ± 0.12
SAGGSAGGSRKIPIWIPPGMPPEQLEHFVRFIAGENGWKIKSVEIKDVDPANNWVKIDIEVKWSAGGSAGGS [r12_168_TrROS] | 2.9 ± 0.093 | 2.16 ± 0.094 | 2.67 ± 0.11
SAGGSAGGSAGTRTITIFIPVPPGKMTPEDALDFIKPFFPDVKIEVEPVNNYYAIEITVKSAGGSAGGSAGG [r11_7_TrROS] | 0.825 ± 0.045 | 1.17 ± 0.056 | 1.04 ± 0.15
SAGGPFRIEDISIQRDPDNGKLTIIIPFPAPPGQEIKIKVRDPGNGKEKKFDMKVEPLPNGYLTMTISAGGS [r8_195_TrROS] | 2.17 ± 0.11 | 1.82 ± 0.14 | 1.91 ± 0.21
SAGGSMKVFVFEVKVEVEVKLDKDGNLTVEIKKVEVKPVKKIPLSEEELEKLREAKKKGLTLEEILSAGGSA [r2_327_TrROS_Hall] | 3.26 ± 0.1 | 2.07 ± 0.11 | 2.78 ± 0.18
SAGGSASSSEKIRITYLKDGVEYEVTFPLVELVTDPNTGVTTVTLPPEFKELFPGPITVTEVEIPPSAGGSA [r15_710_JUSTAS] | 2.267 ± 0.019 | 1.42 ± 0.035 | 1.99 ± 0.032
SAGMKIEIEIVKVEVKEVNGKKVIKVEIKVKVSAEELGLSEEELKEKLEEEVEELARELAEKLNVEVVPSAG [r5_333_TrROS_Hall] | 1.36 ± 0.1 | 2.88 ± 0.36 | 2.21 ± 0.51
SAGGPPGDPILLRISYTIRPNGKERTMDHEIPFKNPNQPITLEQIRKELRDALPPGYKITDVEIDVLSAGGS [r16_407_TrROS] | 0.276 ± 0.16 | 0.364 ± 0.069 | 0.444 ± 0.1
SAGGSAGGSATLTIDELRELLEKLGIDVEELSEEEIAELLKKLYPNARVERNENGELTIHPSAGGSAGGSAG [r3_375_TrROS_Hall] | 2.77 ± 0.12 | 3.34 ± 0.096 | 2.99 ± 0.14
SAGMMKRIVVTARFPADEMTLDEFVELILAKLPGVKPVRVEILSVRPRPDGSYEVTVLLLVEAPPDVDASAG [r5_682_TrMRF] | 4.216 ± 0.032 | 4.38 ± 0.071 | 4.23 ± 0.048
SAGKEEAEKNKIAVLHLELYHPDGTKVSITIAFHPDKPEAVIEELTKLGYPLKDLIKNHPDLKILKIEPSAG [r5_430_TrMRF] | 1.57 ± 0.044 | 1.71 ± 0.092 | 1.71 ± 0.11
SAGMEVEYTLTFELPGGLALRVTAKVRFNPETNELEVLELKVELLPLPPAPPPFISPEEAEKNGLLPEESAG [r5_393_TrMRF] | 4.44 ± 0.27 | 3.81 ± 0.28 | 4.5 ± 0.35
SAGGSEITEEEAEKLKELFPNADITVEKVKPGETKTFPNGFRIEKTEDGYRVTVTLPNGEKLEFPVSAGGSA [r2_166_TrROS_Hall] | 1.37 ± 0.053 | 1.1 ± 0.043 | 1.33 ± 0.11
SAGGSAGGSAGGMEVEYNPEELSPESEVTITVTLPGGEKVELKAKIYTNPDGSLSYELESAGGSAGGSAGGS [r10_390_JUSTAS] | 1.58 ± 0.035 | 0.697 ± 0.047 | 1.3 ± 0.053
SAGGSSSSSYTLNYPDKRVNVSVSHPPSGPLNVTITVYDPNGNKTKTITSPVGSLEKAKSLLEKLLSAGGSA [r2_82_JUSTAS] | 1.28 ± 0.062 | 1.63 ± 0.04 | 1.45 ± 0.11

Sequence | folding stability dG unfold [1] [kcal/mol] | folding stability dG unfold [2] [kcal/mol] | folding stability dG unfold [3] [kcal/mol]
SAGGAIELPDLGEEEAIETLKKLAEEGIKNPVGVIRTPTKPLVITYDPETNTVTITLPDGTILTLVVSAGGS [r16_481_JUSTAS] | 1.83 ± 0.028 | 0.755 ± 0.091 | 1.52 ± 0.11
SAGGSAGGSAGGERVLVMVFKFDPEDNDMKIKDVVTFPNPEEAREEAEKDGYMVMVIPLSAGGSAGGSAGGS [r10_657_TrROS] | 1.85 ± 0.12 | 0.995 ± 0.048 | 1.47 ± 0.2
SAGGNIEVDNDMIEIPFPGGFTIMIRLPPDKGKVTVHIERDPNNPMFREFAKEIADQLPGLPVEVHPWSAGG [r13_34_TrROS] | 0.414 ± 0.14 | 0.996 ± 0.11 | 0.752 ± 0.08
SAGGSAGGPVRITSVRPIPGDPNVVVLELETVDGRPGTVLLVRLPGGERVAVLTLGDRPVVLPLSAGGSAGG [r6_555_TrMRF] | 1.93 ± 0.065 | 0.42 ± 0.013 | 1.41 ± 0.045
SAGGSADYYLIVIEIEKNGKKYKIVLVVSKEDLKKLEEEIKKKFPDVKIKIKVIKFPSKEEALKALSAGGSA [r15_889_TrROS_Hall] | 3.74 ± 0.054 | 2.97 ± 0.1 | 3.46 ± 0.12
SAGGMKIIPLEEAEKFIEANPDKELVIGVRPGESLYLFVVKRDPDKPFNIEVLEVIEFDPDGNGRHLPSAGG [r13_481_TrMRF] | 1.6 ± 0.1 | 1.14 ± 0.11 | 1.3 ± 0.16
SMEEFAKSLPDVKIETKPLSPDEIEITVYIPSDPEKAKKVEEIVKKLAEEIEKKTGIKVKVTFKPVPPEESA [r9_1099_JUSTAS] | 3.32 ± 0.21 | 3.24 ± 0.24 | 3.59 ± 0.68
SELAEEAAKRAREAFAEEHPGWDVLSVEVEVEKDPNNDVVTVTVKLTLRRESPEPREEVLEEEVTLTFPLKS [r1_181_JUSTAS] | 3.24 ± 0.043 | 2.14 ± 0.05 | 2.91 ± 0.067
SEKLVIFVPPNMTVEEIVALAKKYPDKEIVIVMPPNMSEEQKERILKALRDAGLPEGVKVTIVEVEPEDLSA [r9_670_TrROS_Hall] | 3.81 ± 0.16 | 3.73 ± 0.095 | 3.85 ± 0.19
SAGGSAGGGMMLTLSSQTTQTSYDPSGLSTTLSLTTNPLGGTTVVTTTTVPGTGEVSVTTTPSSSAGGSAGG [r6_977_JUSTAS] | 0.508 ± 0.065 | 1.32 ± 0.024 | 1.04 ± 0.045
SMPLSEEEARALAEALAAEVAAAAAAAGVAGVEVPVEISRTEEGGWTITLTVTLHAGAAPVGVRPVVVEVAS [r1_364_JUSTAS] | 1.81 ± 0.026 | 1.19 ± 0.027 | 1.59 ± 0.081
SAGGSAGGSAGGSMSTINFPSKEEIEAYLKKLGLKNVKLPWYPNNNVMDTSDIEKDILESAGGSAGGSAGGS [r4_101_JUSTAS] | 1.29 ± 0.03 | 0.996 ± 0.022 | 1.14 ± 0.058
SAGGMPPVVTEHTVELNPPASATLEDVRAAAEEVAAAIRAAAPEAGVAEVTFTVDPSRGTVTITVTRPSAGG [r13_1011_JUSTAS] | -0.925 ± 0.15 | 0.985 ± 0.018 | 0.442 ± 0.043
SAELTIEITVPPGKSVEEVLAEAKALAEELGLEIVEVRVERDENGEVRVTVVIKLPEELTEEQRKALLESAG [r14_110_TrROS_Hall] | 2.89 ± 0.13 | 3.06 ± 0.17 | 3.02 ± 0.21
SMKPNEKFPSLEEVKEAAKRIAEEIEKKTGKKIEVEVKVETVKKEDGKEVVKITIVDKKTKKVIKEIEIKSA [r9_794_TrROS_Hall] | 0.783 ± 0.076 | 2.18 ± 0.096 | 1.58 ± 0.12
SAGVTITTNPESGTVTITIPFPDGSSATIELNYGGSLPTKPSITSFKVNPYDNGKPIIPADELVKKILSSAG [r5_842_TrMRF] | 1.57 ± 0.13 | 0.96 ± 0.056 | 1.39 ± 0.35
SAGGSAGGSMSLKGVKITEVTNPGGKVTITYTGDGVPQTITIPPAERALIEKLRESGDISFSPSAGGSAGGS [r12_604_JUSTAS] | 0.579 ± 0.17 | 0.708 ± 0.043 | 0.743 ± 0.1
SAGGGLIRDAIENNPELRELLKEGYVLYVTYPDGKSGVIEINNASASEIDDAIRAHFPGEVELEFGSSAGGS [r16_655_TrMRF] | 0.389 ± 0.048 | 1.04 ± 0.028 | 0.752 ± 0.046
SAGGSAGGSFEFPENRPNAKVKVVVQRPDGSPEEFEAEVLPDGTVTLDLPDYPIDRILSVEFGSAGGSAGGS [r12_477_TrMRF] | -0.377 ± 0.19 | 0.0306 ± 0.12 | -0.221 ± 0.17
SAGEEKVEELARELAEELGVTITEVTVTEEGDTVTITVVNEETGERITITVTRNEDGEITVTITVEKLPSAG [r5_888_TrROS_Hall] | 2.53 ± 0.17 | 2.61 ± 0.28 | 2.62 ± 0.11
SAGGNWKIRNPKNGRTIEIDNFNPGNGMFRVKVWNPNGNKEEHPIPGSLEEILEFLQKKGWPVEIERSAGGS [r16_748_TrROS] | 0.888 ± 0.2 | 0.27 ± 0.21 | 0.626 ± 0.23
